The source of these data is US12410262B2, “Peptide conjugates of cytotoxins as therapeutics” (Cybrexa 2, Inc., priority 2019, dated 2025).

Structures are written as SMILES. Where two headings read alike, the source gives them in different places.

For one data set, the system named is HCT116. The data set can be described thus: cells. Type of data set: cell-based, human. As to the method: Cells were plated in 96 well black walled-clear bottom plates (Griener), DLD-1 WT cells at 2500 cells per well, FaDu, and HeLa cells at 5000 cells per well, and HCT116 at 3000 cells per well, in growth media containing 10% FBS. Cells were allowed to adhere at room temperature for 60 minutes before returning to a 37 C, 5% CO2 incubator. After 24 hours, media was removed and replaced with fresh growth media containing various drug concentrations. Each drug concentration was added in triplicate. Non-drug treated controls contained growth media only. Cells were returned to the incubator. Ninety-six hours after addition of drug, cells were fixed with 4% paraformaldehyde for 20 minutes and stained with Hoechst at 1 ug/mL. The plates were imaged on a Cytation 5 auto imager (BioTek) and cells were counted using CellProfiler (http://cellprofiler.org). The percent cell growth delay was calculated and data plotted using GraphPad Prism

A short description of data set [1]: Glutathione cleavage study. Type of data set: in vitro ADME. The following applies: Tris buffer with 10 mM glutathione, Glutathione Challenge (10 mM), 100 μM conjugate, Tris pH 7.5, 37° C. As for the experimental part:
A 20 mM stock of conjugate was prepared in 100% DMSO. The stocks were subsequently diluted in 100 mM Tris, pH 7.5, to yield an intermediate dilution of 500 μM followed by an additional dilution of 1:5 in 100 mM Tris, pH 7.5 to give a final concentration of 100 μM of conjugate. 100 mM glutathione was prepared immediately prior to use in H2O and diluted 1:10 in challenge samples for a final glutathione challenge concentration of 10 mM. Samples were mixed by inversion and incubated at 37° C. for up to 24 hrs. […]
Samples were thawed and extracted as follows: 8 μL of 25% phosphoric acid followed by 117 μL of 100% acetonitrile/0.1% TFA were added to each sample, mixed and centrifuged at 13000×G for 10 minutes. The supernatant was pipetted into 0.2 mL HPLC vials and placed on a Perkin Elmer Flexar HPLC autosampler. The following table summarizes HPLC conditions:
Data was analyzed by calculating the percentage reduction of compound (area of retention time peak of […] conjugate/area of retention time peak of conjugate at time 0)×100.

The next data set can be described thus: Plasma stability studies. Type of data set: in vitro ADME. The following applies: rat plasma, 100 μM conjugate, 37° C. As for the experimental part:
A 20 mM stock of conjugate was prepared in 100% DMSO. The stocks were subsequently diluted in 100 mM Tris, pH 7.5 to yield an intermediate dilution of 500 μM and then diluted 1:5 directly into rat plasma to yield a final concentration of 100 μM of conjugate. Samples were mixed by inversion and incubated at 37° C. for up to 24 h. 50 μL samples were aliquoted into siliconized microfuge tubes at time 0, 4, and 24 h and immediately frozen at −80° C.
Samples were thawed and extracted as follows: 8 μL of 25% phosphoric acid followed by 117 μL of 100% Acetonitrile/0.1% TFA was added to each sample, mixed and centrifuged at 13000×G for 10 minutes. The supernatant was pipetted into 0.2 mL HPLC vials and placed on a Perkin Elmer Flexar HPLC autosampler. The following table summarizes HPLC conditions:
Data was analyzed by calculating the percentage reduction of compound (area of retention time peak of incubated conjugate/area of retention time peak of conjugate at time 0)×100.

The term IC50 denotes the concentration that inhibits the measured activity by half. For the molecule `CC[C@@]1(O)C(=O)OCc2c1cc1n(c2=O)Cc2c-1nc1cc(F)c(C)c3c1c2[C@@H](NC(=O)O[C@H](C)[C@@H](C)SSC[C@H](NC(=O)[C@H](Cc1c[nH]c2ccccc12)NC(=O)[C@H](CC(C)C)NC(=O)[C@H](CC(C)C)NC(=O)[C@H](CC(=O)O)NC(=O)[C@H](CC(C)C)NC(=O)[C@H](CC(C)C)NC(=O)[C@H](CC(C)C)NC(=O)[C@@H](NC(=O)[C@H](CC(=O)O)NC(=O)[C@@H](NC(=O)[C@@H]1CCCN1C(=O)[C@H](Cc1ccccc1)NC(=O)[C@H](CC(C)C)NC(=O)[C@H](CC(C)C)NC(=O)[C@H](CC(=O)O)NC(=O)[C@H](CC(C)C)NC(=O)[C@H](Cc1ccc(O)cc1)NC(=O)[C@H](C)NC(=O)[C@H](CCCNC(=N)N)NC(=O)[C@H](Cc1c[nH]c2ccccc12)NC(=O)[C@@H]1CCCN1C(=O)[C@H](CC(N)=O)NC(=O)[C@H](CCC(N)=O)NC(=O)[C@H](CC(=O)O)NC(=O)[C@H](CC(=O)O)NC(=O)[C@H](C)N)[C@@H](C)O)[C@@H](C)O)C(=O)NCC(=O)O)CC3` [Compound 12], in the data set on HCT116 (HCT-116 cells, 96 h after addition of drug, second table (Compounds 11-29), read-out: HCT-116 (IC50)), the IC50 amounted to 2.6 nM.
In the case of `CC[C@@]1(O)C(=O)OCc2c1cc1n(c2=O)Cc2c-1nc1cc(F)c(C)c3c1c2[C@@H](NC(=O)O[C@@H]1CCCC[C@H]1SSC[C@H](NC(=O)[C@H](Cc1c[nH]c2ccccc12)NC(=O)[C@H](CC(C)C)NC(=O)[C@H](CC(C)C)NC(=O)[C@H](CC(=O)O)NC(=O)[C@H](CC(C)C)NC(=O)[C@H](CC(C)C)NC(=O)[C@H](CC(C)C)NC(=O)[C@@H](NC(=O)[C@H](CC(=O)O)NC(=O)[C@@H](NC(=O)[C@@H]1CCCN1C(=O)[C@H](Cc1ccccc1)NC(=O)[C@H](CC(C)C)NC(=O)[C@H](CC(C)C)NC(=O)[C@H](CC(=O)O)NC(=O)[C@H](CC(C)C)NC(=O)[C@H](Cc1ccc(O)cc1)NC(=O)[C@H](C)NC(=O)[C@H](CCCNC(=N)N)NC(=O)[C@H](Cc1c[nH]c2ccccc12)NC(=O)[C@@H]1CCCN1C(=O)[C@H](CC(N)=O)NC(=O)[C@H](CCC(N)=O)NC(=O)[C@H](CC(=O)O)NC(=O)[C@H](CC(=O)O)NC(=O)[C@H](C)N)[C@@H](C)O)[C@@H](C)O)C(=O)NCC(=O)O)CC3` [Compound 13], the concentration for half-maximal inhibition (IC50) in the data set on HCT116 (96 h) turned out to be 21 nM.
In turn, `CC[C@@]1(O)C(=O)OCc2c1cc1n(c2=O)Cc2c-1nc1cc(F)c(C)c3c1c2[C@@H](NC(=O)O[C@@H]1CCC[C@H]1SSC[C@H](NC(=O)[C@H](Cc1c[nH]c2ccccc12)NC(=O)[C@H](CC(C)C)NC(=O)[C@H](CC(C)C)NC(=O)[C@H](CC(=O)O)NC(=O)[C@H](CC(C)C)NC(=O)[C@H](CC(C)C)NC(=O)[C@H](CC(C)C)NC(=O)[C@@H](NC(=O)[C@H](CC(=O)O)NC(=O)[C@@H](NC(=O)[C@@H]1CCCN1C(=O)[C@H](Cc1ccccc1)NC(=O)[C@H](CC(C)C)NC(=O)[C@H](CC(C)C)NC(=O)[C@H](CC(=O)O)NC(=O)[C@H](CC(C)C)NC(=O)[C@H](Cc1ccc(O)cc1)NC(=O)[C@H](C)NC(=O)[C@H](CCCNC(=N)N)NC(=O)[C@H](Cc1c[nH]c2ccccc12)NC(=O)[C@@H]1CCCN1C(=O)[C@H](CC(N)=O)NC(=O)[C@H](CCC(N)=O)NC(=O)[C@H](CC(=O)O)NC(=O)[C@H](CC(=O)O)NC(=O)[C@H](C)N)[C@@H](C)O)[C@@H](C)O)C(=O)NCC(=O)O)CC3` [Compound 14] yielded a concentration for half-maximal inhibition (IC50) with HCT116 (96 h) of 4.7 nM. Besides, the values for the share remaining at 4 h, 100 µM (in data set [1]; in “Plasma stability studies”) were 14.9% and 106%, respectively. Also, the fraction remaining at 24 h, 100 µM in data set [1] is 6.5%; in the data set “Plasma stability studies”, 106%.
For the molecule `CC[C@@]1(O)C(=O)OCc2c1cc1n(c2=O)Cc2c-1nc1cc(F)c(C)c3c1c2[C@@H](NC(=O)O[C@H]1CCC[C@@H]1SSC[C@H](NC(=O)[C@H](Cc1c[nH]c2ccccc12)NC(=O)[C@H](CC(C)C)NC(=O)[C@H](CC(C)C)NC(=O)[C@H](CC(=O)O)NC(=O)[C@H](CC(C)C)NC(=O)[C@H](CC(C)C)NC(=O)[C@H](CC(C)C)NC(=O)[C@@H](NC(=O)[C@H](CC(=O)O)NC(=O)[C@@H](NC(=O)[C@@H]1CCCN1C(=O)[C@H](Cc1ccccc1)NC(=O)[C@H](CC(C)C)NC(=O)[C@H](CC(C)C)NC(=O)[C@H](CC(=O)O)NC(=O)[C@H](CC(C)C)NC(=O)[C@H](Cc1ccc(O)cc1)NC(=O)[C@H](C)NC(=O)[C@H](CCCNC(=N)N)NC(=O)[C@H](Cc1c[nH]c2ccccc12)NC(=O)[C@@H]1CCCN1C(=O)[C@H](CC(N)=O)NC(=O)[C@H](CCC(N)=O)NC(=O)[C@H](CC(=O)O)NC(=O)[C@H](CC(=O)O)NC(=O)[C@H](C)N)[C@@H](C)O)[C@@H](C)O)C(=O)NCC(=O)O)CC3` [Compound 15], the IC50 in the data set on HCT116 (96 h) came to 1.7 nM. In data set [1], the share remaining at 4 h, 100 µM came to 19.4% and the share remaining at 24 h, 100 µM was found to be 8.3%. For the same molecule, in the data set “Plasma stability studies”, the share remaining at 4 h, 100 µM amounted to 105% and the share remaining at 24 h, 100 µM was found to be 103%.
On the same counts, the results for `CC[C@@]1(O)C(=O)OCc2c1cc1n(c2=O)Cc2c-1nc1cc(F)c(C)c3c1c2[C@@H](NC(=O)O[C@@H]1COC[C@H]1SSC[C@H](NC(=O)[C@H](Cc1c[nH]c2ccccc12)NC(=O)[C@H](CC(C)C)NC(=O)[C@H](CC(C)C)NC(=O)[C@H](CC(=O)O)NC(=O)[C@H](CC(C)C)NC(=O)[C@H](CC(C)C)NC(=O)[C@H](CC(C)C)NC(=O)[C@@H](NC(=O)[C@H](CC(=O)O)NC(=O)[C@@H](NC(=O)[C@@H]1CCCN1C(=O)[C@H](Cc1ccccc1)NC(=O)[C@H](CC(C)C)NC(=O)[C@H](CC(C)C)NC(=O)[C@H](CC(=O)O)NC(=O)[C@H](CC(C)C)NC(=O)[C@H](Cc1ccc(O)cc1)NC(=O)[C@H](C)NC(=O)[C@H](CCCNC(=N)N)NC(=O)[C@H](Cc1c[nH]c2ccccc12)NC(=O)[C@@H]1CCCN1C(=O)[C@H](CC(N)=O)NC(=O)[C@H](CCC(N)=O)NC(=O)[C@H](CC(=O)O)NC(=O)[C@H](CC(=O)O)NC(=O)[C@H](C)N)[C@@H](C)O)[C@@H](C)O)C(=O)NCC(=O)O)CC3` [Compound 16] are 1.7 nM, 3.4%, 2%, 116% and 106%.
The molecule `CC[C@@]1(O)C(=O)OCc2c1cc1n(c2=O)Cc2c-1nc1cc(F)c(C)c3c1c2[C@@H](NC(=O)O[C@H]1Cc2ccccc2C[C@@H]1SSC[C@H](NC(=O)[C@H](Cc1c[nH]c2ccccc12)NC(=O)[C@H](CC(C)C)NC(=O)[C@H](CC(C)C)NC(=O)[C@H](CC(=O)O)NC(=O)[C@H](CC(C)C)NC(=O)[C@H](CC(C)C)NC(=O)[C@H](CC(C)C)NC(=O)[C@@H](NC(=O)[C@H](CC(=O)O)NC(=O)[C@@H](NC(=O)[C@@H]1CCCN1C(=O)[C@H](Cc1ccccc1)NC(=O)[C@H](CC(C)C)NC(=O)[C@H](CC(C)C)NC(=O)[C@H](CC(=O)O)NC(=O)[C@H](CC(C)C)NC(=O)[C@H](Cc1ccc(O)cc1)NC(=O)[C@H](C)NC(=O)[C@H](CCCNC(=N)N)NC(=O)[C@H](Cc1c[nH]c2ccccc12)NC(=O)[C@@H]1CCCN1C(=O)[C@H](CC(N)=O)NC(=O)[C@H](CCC(N)=O)NC(=O)[C@H](CC(=O)O)NC(=O)[C@H](CC(=O)O)NC(=O)[C@H](C)N)[C@@H](C)O)[C@@H](C)O)C(=O)NCC(=O)O)CC3` [Compound 19] showed a concentration for half-maximal inhibition (IC50) in the data set with HCT116 (96 h) of 1.8 nM.
